{"source": "patent US20250197923", "key": {"[1]": {"test_system": "BD009-SDpol-1 (synthetic construct)", "details": "RT-LAMP time at 10000 copies RNA; 7 mM MgSO4, 50 mM KCl, pH 8.8; 18.6 min at 10 copies"}, "Bst 2.0": {"test_system": "Bst 2.0", "details": "RT-LAMP time at 10000 copies RNA; 8 mM MgSO4, 50 mM KCl, pH 8.8; none at 100 copies"}}}
{"substance": "SARS-CoV-2 gene N LAMP target", "values": [{"measurement": "activity", "setting": "[1]", "result": 8.7, "unit": "min"}, {"measurement": "activity", "setting": "Bst 2.0", "result": 30, "unit": "min"}]}
